Laboratory results: PMC9280406, “The Necrotroph Botrytis cinerea BcSpd1 Plays a Key Role in Modulating Both Fungal Pathogenic Factors and Plant Disease Development”

Target: BcSpd1 (Botrytis cinerea, UniProt A0A384JL35 1-465)
Assay: EMSA; excess unlabeled probe blocked the shift; LightShift Chemiluminescent EMSA kit procedure (Thermo Scientific); buffer, salt, pH and temperature not given
Conditions: protein: recombinant; tags: His (pET28a); chain copies: 2; blunt

B1: BcQdo promoter fragment 3 (E-BcQdo-Pr3) (dsDNA)
DNA 1: TACCGAACGCCCACAAGCCTTGAATATAGATGTACCGGTACTGCTGCCGA
DNA 2: TCGGCAGCAGTACCGGTACATCTATATTCAAGGCTTGTGGGCGTTCGGTA
B1: binds.
